Source: article PMC2924745 (Nature structural & molecular biology, 2010)

T1: BtuCD, the E. coli vitamin B12 ABC transporter (His-tagged) (Escherichia coli, UniProt P06609;P06611)
T1 sequence 1: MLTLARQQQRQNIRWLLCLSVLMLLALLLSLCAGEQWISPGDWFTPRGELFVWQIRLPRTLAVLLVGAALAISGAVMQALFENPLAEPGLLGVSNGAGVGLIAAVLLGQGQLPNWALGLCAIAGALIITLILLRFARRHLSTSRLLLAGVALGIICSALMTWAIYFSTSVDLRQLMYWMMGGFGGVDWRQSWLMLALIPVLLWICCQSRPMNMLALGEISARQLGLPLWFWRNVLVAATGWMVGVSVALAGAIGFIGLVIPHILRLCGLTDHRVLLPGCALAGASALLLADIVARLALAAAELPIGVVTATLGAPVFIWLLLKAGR
T1 sequence 2: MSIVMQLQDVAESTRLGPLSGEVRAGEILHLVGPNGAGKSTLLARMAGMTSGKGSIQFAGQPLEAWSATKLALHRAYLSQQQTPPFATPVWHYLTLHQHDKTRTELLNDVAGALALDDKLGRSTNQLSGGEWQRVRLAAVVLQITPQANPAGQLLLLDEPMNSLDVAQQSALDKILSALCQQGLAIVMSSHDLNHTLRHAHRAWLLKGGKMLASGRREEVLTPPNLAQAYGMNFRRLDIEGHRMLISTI

B1: BtuF, the vitamin B12 binding protein of E. coli, with a C-terminal FLAG tag (natural protein)
chain: APRVITLSPANTELAFAAGITPVGVSSYSDYPPQAQKIEQVSTWQGMNLERIVALKPDLVIAWRGGNAERQVDQLASLGIKVMWVDATSIEQIANALRQLAPWSPQPDKAEQAAQSLLDQYAQLKAQYADKPKKRVFLQFGINPPFTSGKESIQNQVLEVCGGENIFKDSRVPWPQVSREQVLARSPQAIVITGGPDQIPKIKQYWGEQLKIPVIPLTSDWFERASPRIILAAQQLCNALSQVD

What was measured:
[1] = target: MetIN, the E. coli D/L-methionine ABC importer (His-tagged) (Escherichia coli) (UniProt P30750); test: SPR
Chain of MetIN, the E. coli D/L-methionine ABC importer (His-tagged) (Escherichia coli) (P30750 whole entry, chain 1 of 2): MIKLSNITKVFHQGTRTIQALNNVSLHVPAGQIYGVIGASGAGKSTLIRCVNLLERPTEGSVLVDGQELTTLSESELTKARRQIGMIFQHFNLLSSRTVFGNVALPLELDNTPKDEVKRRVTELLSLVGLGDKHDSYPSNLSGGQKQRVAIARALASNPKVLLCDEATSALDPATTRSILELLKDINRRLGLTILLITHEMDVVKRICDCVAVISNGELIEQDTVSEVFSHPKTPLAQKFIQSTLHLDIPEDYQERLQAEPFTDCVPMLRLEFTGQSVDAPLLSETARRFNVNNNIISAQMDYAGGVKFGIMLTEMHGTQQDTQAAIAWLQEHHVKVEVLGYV
Chain of MetIN, the E. coli D/L-methionine ABC importer (His-tagged) (Escherichia coli) (P31547 whole entry, chain 2 of 2, further chain): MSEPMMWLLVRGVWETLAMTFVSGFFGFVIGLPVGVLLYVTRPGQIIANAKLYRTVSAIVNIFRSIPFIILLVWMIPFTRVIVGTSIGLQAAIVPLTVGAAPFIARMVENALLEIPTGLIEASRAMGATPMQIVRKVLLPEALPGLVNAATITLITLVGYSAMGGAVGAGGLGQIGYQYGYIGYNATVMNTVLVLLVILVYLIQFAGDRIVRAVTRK

[2] = target: T1, BtuCD, the E. coli vitamin B12 ABC …; test: co-sedimentation
[3] = target: T1, BtuCD, the E. coli vitamin B12 ABC …; test: cell-based or functional assay

| Molecule | Kd [1] [µM] | Kd [2] [µM] | stimulation of ATP hydrolysis rate of BtuCD [3] [fold] |
| --- | --- | --- | --- |
| MetQ, the binding protein of the E. coli D/L-methionine importer (from UniProt P28635 23-271) (natural protein) | 74 |  |  |
| B1 |  | < 0.02 | < 2 |
